B1: LMNB1 (parent)
chain: LYKEELEQTYHAKLENARLSSEMN
B2: DYRK1B (parent)
chain: YQGPGTRRLQEVLGVQTGGPGGRR

Variants of: B1
Assay: protein stability index of a GFP-peptide fusion (GPS, HEK-293T) (PSI 1-6); higher = more stable
Conditions: c terminus: a fixed tail appended
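Also: lentivirally expressed fusions sorted by FACS into six bins by GFP to DsRed ratio, PSI derived from sequencing read proportions per bin multiplied by bin number.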

Protein stability index: each site, then its substitutions
A12: Q 4.25; M 2.36; S 4.29; T 4.08; W 2.65; N 4.38; K 4.32; Y 3.52; P 3.73; L 3.17; V 3.48
S20: V 2.88; K 3.6; C 2.21; F 2.29; H 2.73; T 2.74; Q 2.91; L 3.38; D 2.71; A 2.63; E 2.04; W 1.82; M 2.58; G 2.7; P 3.18; R 3.26; N 3.07; Y 1.93; I 2.81
S21: A 2.68; L 1.78; E 3.18; Q 2.55; C 2.02; W 1.82; K 2.91; G 2.51; N 2.55; P 2.37; T 2.83; V 2.26; R 2.25; D 3.48; Y 2.1; F 2.42; M 2.72; I 2.35; H 2.59
R18: L 2.81; P 3.62; N 3.83; K 3.31; G 3.35; V 2.1; D 3.7; F 2.17; W 1.08; T 2.73; E 3.72; Q 3.14; C 2.6; H 3.1; I 2.27; M 2.76; S 2.92; Y 2.24; A 3.26
E22: V 2.42; R 2.88; G 2.81; N 3.3; F 1.93; P 2.4; Y 2.4; I 2.74; L 2.68; D 2.62; T 2.35; H 2.22; C 2.83; K 2.61; W 1.74; S 3.44; A 2.63; M 2.58; Q 2.73
K13: C 2.71; N 3.35; Y 1.84; L 2.38; I 1.95; D 4.59; H 3.08; V 2.8; G 4.57; Q 3.06; M 2.48; R 2.55; F 2.25; S 2.82; A 3.93; T 2.06; W 2.65; P 4.37; E 4.33
M23: S 2.87; C 2.76; Q 3.04; F 2.42; V 2.46; D 2.82; W 2.58; R 3.21; T 2.52; K 3.28; L 2.19; N 2.95; G 2.8; E 2.89; I 2.6; A 3.24; P 2.67; H 2.94; Y 1.6
A17: G 4.01; P 2.66; L 2.44; M 1.98; H 3.52; K 3.9; V 1.41; F 1.82; Y 2.2; T 2.61; W 1.78; N 3.86; S 3.61; D 4.14; Q 3.72; I 1.97; E 4.26; R 3.71; C 1.82
E15: L 2.9; K 2.98; A 2.61; W 1.94; G 2.65; M 1.94; R 2.76; N 2.71; T 2.25; Y 2.47; Q 2.58; P 3.31; C 2.06; H 2.38; V 2.01; D 3.48; S 2.33; I 2.44; F 2.38
L19: Y 2.36; E 4.75; G 3.88; H 3.31; C 3.36; D 4.25; T 3.6; P 2.74; Q 3.92; S 3.08; R 3.79; M 3.15; W 1.8; N 3.76; A 3.67; K 3.35; F 2.68; I 2.39; V 2.88
N16: H 3.14; I 2.35; P 3.33; K 2.98; A 2.98; T 2.96; V 2.3; C 2.48; D 2.92; Q 3.32; M 3.03; E 4; L 3.23; F 1.89; S 2.42; G 2.27; R 2.92; Y 1.83
N24: C 2.33; L 2.51; S 2.64; V 2.26; T 2.46; P 2.17; A 2.43; F 1.88; H 3.28; Q 3.04; M 2.6; Y 2.27; I 2.48; D 3.25; K 2.33; W 1.79; G 3.47; E 3.25; R 3.11
L14: E 4.64; D 4.74; S 4.66; N 4.54; I 3.46; Y 3.51; K 5.64; P 5; V 3.49; G 4.36; M 3.09; F 2.58; A 4.49; R 4.78; H 4.59; W 3.11; T 4.34; Q 4.56; C 4.28

Variants of: B2
Assay: as above
Conditions: c terminus: a fixed tail appended

Protein stability index: each site, then its substitutions
P4: V 3.14; M 1.91; W 1.76; H 2.79; I 2.58; E 3.3; T 2.79; F 1.68; R 2.78; A 3.01; Y 2.35; N 2.69; L 2.39; D 2.81; Q 2.88; K 2.63; S 2.32; C 2.29
T6: A 2.71; F 2.88; E 3.47; C 2.32; D 3.79
G5: I 2.76; S 3.42; K 2.94; A 3.44; E 3.74; D 3.69; C 3.38; R 2.58; W 1.08; N 4.4; P 2.8; Q 4.42; M 2.46; Y 2.34; F 1.92; V 3.4; H 3.17; T 3.22
Y1: K 3.84; I 4.33; A 4.7; E 4.83; H 4.78; F 3.84; M 4.18; L 4.32; T 4.72; C 4.48; P 5.36; S 4.96; D 4.91; W 3.9; R 4.22; G 4.41; Q 4.04; V 4.28; N 4.63
G3: K 2.79; H 3.81; F 2.77; A 3.31; N 3.71; V 2.38; Q 3.11; P 3.39; T 3.52; W 3.1; I 2.98; E 4.32; R 2.25; D 3.83; C 3.58; L 3.23; M 3.03; S 3.44; Y 2.48
Q2: P 3.44; D 4.23; I 2.52; K 4.18; M 3.83; R 3.87; H 2.26; N 2.26; L 2.5; G 3.39; F 3.22; C 2.66; W 2.95; T 3.12; E 4.23; S 1.83; Y 3.7
